# Source: the RNAGym collection of RNA variant scans (doi:10.1073/pnas.2313332121)
# B1: TPR t1 (parent)
# chain: GACCAAUCUGCCCUCAGAGCUCGAGAACAUCUUCGGAUGCAGAGGAGGCAGGCUUCGGUGGCGCGAUAGCGCCAACGUCCUCAACCUCCAAUGCAUCCCACCACAUGAUGAUGCCUGAAGAGCCUUGGUUUUUUG
# Variants of: B1
# Test: polymerase ribozyme fitness, log enrichment relative to wild type (log ratio); higher = more active; in vitro selection for triplet polymerase activity
# Summary of the method: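 Libraries of mutants in each subunit of a heterodimeric triplet polymerase ribozyme were generated by PCR and transcribed. In triplicate, each went through one in vitro selection round: annealing with biotinylated primer, partner subunit and triplets; frozen incubation at −7 °C; gel excision of extended constructs; streptavidin-bead capture; RT-PCR. Fitness, taken from Illumina sequencing of input and output libraries, is the logarithm of a genotype's enrichment over wild-type enrichment, averaged across replicates with inverse-variance weights. The logarithm is base 2, and genotypes needed ≥10 input reads and ≥1 read per output to be kept.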
row,Variant,polymerase ribozyme fitness (log ratio)
1,U33A A90C,-6.85
2,G10A C53U G63U,-0.334
3,A18G G63C,-2.89
4,G10A C72A U87G C102U,-1.09
5,C53U A121G,1.95
6,C22G A41U C88G U116G A121G,-4.87
7,A5C C86U,-0.23
8,U30A G39C C49A,-5.37
9,C13U G110C,-3.69
10,A41U C49G G52U U112C,-1.09
11,A6G C12A C80U G113U,-3.95
12,A95C U131A,-0.642
13,C98U G110C U131A,-5.64
14,G36U G42C,-2.93
15,C3U G42U,-1.55
16,A24G G47A G77U C86U,-2.29
17,C64U G65A A105G G113A,-6.73
18,C15G C70U A84G,-5.53
19,C12U G71A U92G U96A,-5.06
20,A37C C53G C62A,-1.57
21,A18U C62G,-4.86
22,A41U A43C C49U A50G U129C,-4.69
23,G42A U59G C73U U112G C123A,-4.46
24,C72A U96G U132A,-0.0408

row,Variant,polymerase ribozyme fitness (log ratio)
1,C56U A121C,1.68
2,G61A C98U C114A,-2.26
3,C8U U14A,-0.398
4,C80A G113C,-5.5
5,C13G A37U G42C C53U G77A A121G U130A,-1.06
6,G36U G47U G61A,-4.11
7,C8G U54G C89G,-1.05
8,G61C C115G,-4.37
9,C56U G57U A90C G110U,-3.95
10,G36U G61A G93C G120C,-0.0777
11,C64U U129C,-0.708
12,C12A A26U,-3.83
13,A27U C53A,-3.49
14,G51U C56G,-5.36
15,A2C G63U A100U U133G,-3.47
16,C49G C88A U96G U125G,-2.28
17,A18C C73A,-2.69
18,G51U G60A,-2.28
19,C104U G117U,-0.481
20,C28G G93U,-3.89
21,C8G U32A,-3.34
22,G47C G113C G127C,-3.94
23,C11U C20U C56A C88U C114U U131G,-0.397
24,G48A A84C C86U U87G G117A G128U,-6.08

row,Variant,polymerase ribozyme fitness (log ratio)
1,C40A C104U G110U A111U C123G U125G,-6.57
2,C13U G19U A50G A91U,-2.58
3,G110C G127U,-2.52
4,C13U C34U C62A G120C C124U,-6.16
5,A26U C72G,-3.37
6,A18G C62U C86G,-4.96
7,G51C C99U,-7.54
8,A24G C56A G60U A83C U133A,-2.54
9,C20A G52C C72A,-2.79
10,G63U U78C,-2.92
11,A24G C73U C88U C101U,-2.26
12,C70U C85A C94U U112C,-0.466
13,G48C C72A C79G G127C,-3.9
14,C20G U109G,-3.38
15,C13U A27C A83U A84C C86A,-3.39
16,C15A C82U C89A U96A C104U,-3.39
17,U32C G47A,-1.18
18,C8G C13G A16U C49A U129C,-0.993
19,G10U C12U A43U A118U,-0.927
20,C22G C104A C123A,-3.01
21,A50G G57A C72U U96C C114U,-4.36
22,C3G C73A C76U A90G G120U G127U,-3.52
23,G42A G93A C114U,-3.01
24,U21C G36U C64U,-0.911

row,Variant,polymerase ribozyme fitness (log ratio)
1,C62U G107A,-4.72
2,C40G G47U C64U G93U U129C U133G,-3.04
3,C8G U78C G93A C123A,1.83
4,A2U A5G A18U A43C C56U C85A U126C U129A,-3.94
5,A2G C70U,-0.43
6,C123U,1.07
7,G10C A68G,-4.75
8,C8A G45U C56U C73U A84C A95U,-1.85
9,C40U C49A C73U C98G,-6.1
10,G47U G58A G63U A90G G117C,-6.13
11,U55G C104A,-1.59
12,G19A G44U,-3.1
13,G51U U112A,-3.68
14,C28A C99U U106A,-5.34
15,C70G C124A,-1.21
16,C8G C28G C56A C88A,-3.47
17,G48U C53G C86U C98A C123G C124A,-5.23
18,G42U G45U C88G G110A,-3.96
19,A6G C72U G93A,-0.751
20,A27C G47U,-4.29
21,C22U C40G,-4.26
22,C3A G71C,-3.03
23,C8A C40A A43G G60C,-3.55
24,U7A G17U A111C G135U,-3.91

row,Variant,polymerase ribozyme fitness (log ratio)
1,A18C G71C A121C C123U C124U,-3.96
2,A6G C76A C88G A121U G128A,-1.67
3,A26C G69C G117C,-6.27
4,C20U C73U A95C U129A,-4.3
5,C15A U59A,-2.31
6,C8A A18G U32A G61A C123A,-2.56
7,A18G C101U C114U U129A,-5.75
8,C20U C64U,-1.68
9,C4U U96A,-1.6
10,A66G G77A,-1.13
11,U9C A26U G57C A84U,-3.11
12,A6C A29U G52U C53U G120A C123U,-2.96
13,U9A G44U C56U G122A,-0.525
14,A41C G48U G61C U92A,-5.63
15,C11A G122U,0.0729
16,C70U C89A,-2.09
17,C12U C20A G120A U132C,-1.48
18,C102A C114A,-4.17
19,U14A C40A A50G A74G G117U,-5.9
20,C8G A16G C56G A83C,0.0154
21,C12A G61U C98U U125A,-1.77
22,C31G C72G,-6.27
23,G10U A43U C73G A108G,-6.59
24,A95G C124U U130G,0.565

row,Variant,polymerase ribozyme fitness (log ratio)
1,G60U C94U G110C,-4.16
2,G71C U92A A119U C124A,-3.83
3,C62A C72U G117A U129A U130C,-2.9
4,G45A C53G A83G G117A,-3.23
5,A46U C56U C101U,-1.33
6,A2G C73A A90G A105G,-2.1
7,U81C G93C,-1.57
8,U54G G69U A121C U126A,-0.813
9,A18C A46U G71A A84G G117C,-7.1
10,U14A G63U G113A,-5.73
11,G77U U109A U116G,-7.07
12,C12U C73U A95U A111U,-2.86
13,C56U C73U C88G,-1.95
14,U9G G19C C56A G69C,-6.2
15,U54A C70G A118G U133A G135U,-2.84
16,A2U A41G U55A C72A,-2.61
17,C12G U78G C102U,-1.99
18,C12A C124G,1.95
19,A46U G48U,-2.29
20,G42C G128C,-4.09
21,G61C G107U,-7.35
22,U7A A26U,-2.56
23,G42A G61A,-1.27
24,G36C C79G C98U C115U C124U,-6.21

row,Variant,polymerase ribozyme fitness (log ratio)
1,G45A C88A U112G,-0.116
2,C86U C115G,-1.57
3,U38C G110U G135U,-3.96
4,C11U G65U C82U C104A U112A,-6.27
5,A2G C13G A37U C49A C53A A100G C114A C124A,-7.24
6,C56A C62G C88U,-3.82
7,A41G C64U U81A,-2.25
8,C49A G61A C89G U106G C123U,-3.4
9,C70G C79U,-3.08
10,C31A C70A A83C G113U A118G,-6.98
11,U38G A95C A100C U106A G127A,-3.43
12,C22G C62G,-4.53
13,U7A A50U,-0.856
14,A16C G77U A119G,0.8
15,C11A G42U,-2.71
16,C20A A26G G63U C99A C104A,-6.09
17,C40U G63C C80U,-1.53
18,C40A G63C C123U,-0.868
19,C11A G69A C82U,-3.91
20,G45U A50C C56A,-1.55
21,G36A C72A C97U A121G,1.78
22,C34U A37G C64U U78C G113U U125G,-5.79
23,A50G G113C,-1.84
